Reference: the DeepSol protein solubility set

Assay: soluble on expression in E. coli; label from the status in PepcDB or PDB records

Row | Sequence | soluble on expression in E. coli
1 | MLKKAEKFEKIFRLESSLRALERVRDFLSQESYERLRELVLIRLKGIKIEEKELNSKVAVAFSGGSDSSATYKILAWAGFKVYPITAKLPQMRDEVLKRLESGGAIFVEIPEYMEVMEDLIRKRTAICGRCHSMVMRAVEERARELGAEIVASGDMLTVGSGSIYEKDGIVILNLPAFLALDKKELLEILGWKKYELKYGCPLWKEAAKRAPVLKKFGLQRVLRELRGGALPKEFAKELIIDILRA | not soluble
2 | MNVIEGVVATPNARVAIAIARFNNFINDSLLDGAIDALKRIGQVSDDNITVVWVPGAYELPLVANVLAKTNRYDAVIALGTVIRGGTAHFEYVAGEASSGLSSVAMNSDIPVAFGVLTTESIEQAIERAGTKAGNKGAEAALTALEMINVIKAIKG | not soluble
3 | MSLNPVDRPLLDIGLTRLEFLRISGKGLAGLTIAPALLSLLGCKQEDIDSGTVGLINTPKGVLVTQRARCTGCHRCEISCTNFNDGSVGTFFSRIKIHRNYFFGDNGVGSGGGLYGDLNYTADTCRQCKEPQCMNVCPIGAITWQQKEGCITVDHKRCIGCSACTTACPWMMATVNTESKKSSKCVLCGECANACPTGALKIIEWKDITEGHHHHHH | not soluble
4 | MGLAASEALQGSEQEINSAFSNQITPVISGDYIVWQDERDGNWDIYMYDMSAGRTETSLFNGPKDEIEPAISGSRVVLADNRRGNYDIYMYDISTKKEVQVTSDKSEQKEPAISEDIIVWTDRRNQNTDIYMYDLTTKEETRITDDKADQSQPAVWGNIIVWKDTRNGNEDIYMYDISAGKESPVVMDSAAQTNPVIEGDYIVWEDRRAGNLDIYMYEISTGKEKPVCTDPSPQKTPAISDGRIVWADGRIKGTNIFIYDIATGQEKTVSTASEYESNPSIDGNRIVWQDKRKGAMDIFMFTEDASETESTAGEKTEAETGSKAPLGIYPVSAGVIAAYLMINSGKKGKRKTLEHHHHHH | not soluble
5 | MKGLCSSDTRQYLPGHQLWEAPVQIRRYSAVIHHATKCQWGVIPSRTINVSLHQTRRMRVAAVGIGGAGGRIVERLWQDNERRETTYLGAACAVDTDTEALDELDALPADRRYAFGLSETNGTGTNGDRTSGTAAIEDERLEVRRAIDELVTSDIDAVVLVAGLAGGTGSGATAHIADALREVYSIPVYCLSVLPAGRDDDAAANTMQALRALESTVDGQILFDNEAWLGSGQTVESASETLNETIVARLGALFAAGEATAPDAVGQSVVDASEIINTLSDAGFTTLGYASQDLQTGAGSGDGTVIDQLKNRFLGDNADDVDEIEAYNAVETTLRRAVRGKLTAQCELDSADRALAVFAGPPAWLIRDAVTDGRRWLTEELQSPEVRSGLEHHHHHH | not soluble
6 | MSFDKQNLIWIDLEMTGLDPEKERIIEIATIVTDKNLNILAEGPVLAVHQSDELLNKMNDWCQKTHSENGLIERIKASKLTERAAELQTLDFLKKWVPKGASPICGNSIAQDKRFLVKYMPDLADYFHYRHLDVSTLKELAARWKPEILEGFKKENTHLALDDIRESIKELAYYREHFMKLDLEHHHHHH | soluble
7 | MKRRLDDQESPVYAAQQRRIPGSTEAFPHQHRVLAPAPPVYEAVSETMQSATGIQYSVTPSYQVSAMPQSSGSHGPAIAAVHSSHHHPTAVQPHGGQVVQSHAHPAPPVAPVQGQQQFQRLKVVFSSFSWVKKFIFSRKYWLQLVGCGGTTSNLRY | not soluble
8 | MGSDKIHHHHHHMHHNTWKGIILQKQGLLKPQSVQQICQNLNGLQAQFQPYVHIGFRNRMTNEAFQNQDWQASLTRQWSLRRTVHAYLKSEIPLYIHEGRMASVDYLETVSWDGALPQVKKKFYQVILEALETGPMTREELKILCRAENIGVEEEKQVFNAWGGLLRYMVERGEIYQEYGVKRFHRLRDFQPLPKKEAELEIARRYFTGFGPVSLADARYYFKENKSTVLKWMEQLDLKTVEVAGEERFYLGELEEAELPDCLFVAGFDQLLLGYEKKANPFFNPKYIRNIYTLTGIVKPVVFYKGRFVATWKRDKGTILLDIFEDITQQEEKELEHYRQMFEKIL | not soluble
9 | MTELERHLLNALEQLQQDYMQRLNEWESAFVELQKMFSLTQRDNAMLNEQVMQLSQQVQHLSERTERLSQLYSENRRLEHHHHHH | not soluble
10 | MSRPTLQVDLLVESFNYKAWSDRRTLDAIARIDAEAFPASLAFALQQLNHMAIVEELFRARLLGEPAPHQQTNSEVVPGYDVLRRRLEDSAAWFAGYVAELPLERRGEWLRFRFADGRDGGMTRQEILFHIVNHGTYHRGAIGHALDLAGAPRPADTYTLYIHSAQPERRE | not soluble
11 | MEKRIVCLAGDGVGPEVMESAKEVLHMVERLYGHHFHLQDEHFGGVAIDLTGQPLPQRTLAACLASDAVLLGAVGGPRWDGAKERPEKGLLALRKGLGVFANVRPVTVESATAHLSPLKKADEIDFVVVRELTGGIYFSYPKERTDEVATDTLTYHRHEIERIVSCAFQLASKRKKKVTSIDKANVLESSKLWRIVTEEVALRYPDVELEHILVDAAAMELIRNPGRFDVIVTENLFGDILSDEASVLAGSLGMLPSASHAEKGPSLYEPIHGSAPDIAGKNKANPIAMMRSVAMMLGQSFGLTREGCAIEEAISAVLKSGKCTADIGGTETTTSFTKAVMQEMEEQALVGRGR | not soluble
12 | MSLAYIYLMRHAKTVMNIEGRWQGINDSDIPEESLRHFEERIRFLAGKNIKAIYSSCLVRSIKSATVAASILGIDHIETVRGFNERDLGLMEGKTNDEIREKFGITDIYIASRAIESIPMVEPWPKFVGRVMATLQAFSGRDGSLVITHGGVMRAIYNTLTGSNERRVIFDNGYILKLEFSGSWRISEIIGQEGHHHHHH | soluble
13 | MGSDKIHHHHHHMKKLVATAPRVAALVEYEDRAILANEVKIRVRFGAPKHGTEVVDFRAASPFIDEDFNGEWQMFTPRPADAPRGIEFGKFQLGNMVVGDIIECGSDVTDYAVGDSVCGYGPLSETVIINAVNNYKLRKMPQGSSWKNAVCYDPAQFAMSGVRDANVRVGDFVVVVGLGAIGQIAIQLAKRAGASVVIGVDPIAHRCDIARRHGADFCLNPIGTDVGKEIKTLTGKQGADVIIETSGYADALQSALRGLAYGGTISYVAFAKPFAEGFNLGREAHFNNAKIVFSRACSEPNPDYPRWSRKRIEETCWELLMNGYLNCEDLIDPVVTFANSPESYMQYVDQHPEQSIKMGVTF | not soluble
14 | MHSPTPFALAIFLGILYHIPTFSNQRSIMNNLELEQLINQKLSSDKINDYAPNGLQVEGKTEIKKIITGVTASQALINYAISQNADAILVHHGYFWKSETPCIRGMKGKRIKALLVNDINLYGYHLPLDVHPELGNNAQLAKLLDIENLQPLEKGSVSIPVWGELKEPMTGKDFAEKIEKVLNRKPLICIENGPHLIRKIGICTGGGQGYIDLAAEQGCDAFITGEVSEQTIHSAREQGLYFFSAGHHATERYGIKALGEWLAKEYGFDVEFKDIDNPALEHHHHHH | soluble
15 | MGSDKIHHHHHHMSKIFAQDTDCSFLIEQAVKAPSGHNTQPWTFRIKETGIDILPDFTKTLPVVDPDNRELFVSLGCATENLCVAAAHKGYETMVSIAENGTIHIELTKQDSDTPSPLFPHISVRQTNRSVYDGNTIPVNDIVALGEKSDMEPCVGAHFFKNGTREFDAISEMVCEGNSIQMRDKKFKEELQQWMRYNKKHQDATRDGLSYAVFGAPNLSRFIAKAIITRLINEKSQNRNDRRKIASSSHFVLFTTSNNTVVQWIKLGRALEHILLKATGMGISHAYMNQPNEVQGLSGKMAEILGIEDEYPTVLIRLGYGSKMPYSLRRSVQSCIIPNSFD | not soluble
16 | MAADYTHFIHRQHAPPEVCLSAFSGHNDALDFPDSEGSPVSQSLIAALQNPALFPHPVEGFQVIETHISWVLLTGPFAYKVKKPVNFGFLDFTSLDAREHFCGEELRLNQRLTEDLYLEVLPITGSAEAPVLGGDGPAIEYVLKMRQFPQSQLLSTLQANSELTTAHIDEMARQIAHFHLNAPKVPAEHEAGTPESVMAPVRQNFEQIRPFLSDKADLQQLEALEAWAETSFERLKPLLAQRKSEGFIRECHGDIHLGNATLIDGKVVIFDCIEFNEPFRFTDVYADTGFLAMDLEDRGLKSLARRFISQYLELTGDYQGLELLNFYKAYRALVRAKVSLFSMPAEATPVQRATTLRQYRNYANLAESYSTIPSRFLAITSGISAVGKSRVAMRLVEALGAVRLRSDVERKRLFGEQQVPNDPHAGIYSSEASSATYARLHEIAETILRAGFPVVIDATYLKRAQRDAAAKVAEATGTPCLIIDCNAPEAVVASWLAQRQADQNDPSDATLEVIANQQATREALTDEELLRSKRIETNESGSLDALVANIRQRLPGLLEHHHHHH | not soluble
17 | MIFVLDVGNTNAVLGVFEEGELRQHWRMETDRHKTEDEYGMLVKQLLEHEGLSFEDVKGIIVSSVVPPIMFALERMCEKYFKIKPLVVGPGIKTGLNIKYENPREVGADRIVNAVAGIHLYGSPLIIVDFGTATTYCYINEEKHYMGGVITPGIMISAEALYSRAAKLPRIEITKPSSVVGKNTVSAMQSGILYGYVGQVEGIVKRMKEEAKQEPKVIATGGLAKLISEESNVIDVVDPFLTLKGLYMLYERNANLQHEKGEHHHHHH | soluble
18 | MITSECIIYLARKYQCKFILLGRSAILATEPEWSIGCVDESELKKRIMQHLIEQQEKPTPIKVQNLYKKICQSREIYQTLADIKQGGGEAEYLSIDVTDTSALKSALAPVVARLGRITGIIHGAGNLADKLIEHKTEQDFQTVYNVKIEGLHSLINCVDIAQLKFIALFSSFVSFYGNVGQSDYSLANEILNKYAYLLQRKYPECHVVSFGWGPWDGGMVTPQLKQLFTQKNIKLIPLRVGAEILAEELTQDHTKVPQLIIMSQGISVLPKAFSPEKHSYRLYRRLTLQGNPFVYDHVIGGNAVLPAVCALAWMTNICEQFYPGYHFLSCQKYKVLKGIVFDDNLANLYCLDLTEVEKSEEEIQLEALIWSETPKGIPLYHYRALINISQKSHAQQALTFEDFNYYESSLSLNPYQEGILFHHQRFRGIQKILEITANKLIASCFLPEISPAEQGQFLTQSFNPYTADMFFQCLLIWVRQTYGLGSLPLELTALKQFYTLPFNQEFLINLSIEEQSETKVVASAIAHDIQGKVYLEATNMQVTSSARLNQLFLNNTVASKNTVCMLEHHHHHH | not soluble
19 | MSIVSLAKQSGLSVSSISAYENNKRQPKIESLQKISKVLGVSSAYLNGMSEEKNILNVNSQSLKNNTIDIDVIGFLLNVRSTYPGKVPIFIQDVLAGAPIYIDDNGNKLDAKKRKLLITFLKTLLN | not soluble
20 | MGSDKIHHHHHHMVDQSQLRQWGCKVIDIEKSALDNLYQYVDSAEFAQACELILNCSGKVIVMGMGKSGHIGNKISATLASTGTPAFFVHPGEASHGDLGVLSDNDIILAISNSGESSEILALMPVIQRKAIPVIAMTGKPESTMARLAKIHLCIEVPEEACPLGLAPTSSTTATLVMGDAMAIALLQAKGFTRDDFAMSHPGGALGRKLLLKVSNVMHCGDDLPLVKHDICITDALYEISKKGLGMTAIIDEQNKLVGIFTDGDLRRVIDAQVNLRTTPIADVMTRNCVTITENVLAAQALQVMDSRNINGLIVIDKENHPVGALNMLDMVKAGVI | not soluble
21 | MSLQKLAVFDFDSTLVNAETIESLARAWGVFDEVKTITLKAMNGETDFHKSLILRVSKLKNMPLKLAKEVCESLPLFEGALELVSALKEKNYKVVCFSGGFDLATNHYRDLLHLDAAFSNTLIVENDALNGLVTGHMMFSHSKGEMLLVLQRLLNISKTNTLVVGDGANDLSMFKHAHIKIAFNAKEVLKQHATHCINEPDLALIKPLIEGHHHHHH | soluble
